Biological target: T1, GST-HrcA fusion protein (C. jejuni NCTC11168 HrcA repressor fused to glutathione S-transferase) (C. jejuni NCTC 11168, UniProt Q9PPG2 1-264)
T1 construct: HrcA heat-shock transcriptional repressor of Campylobacter jejuni NCTC 11168; also called heat-shock repressor HrcA
T1 sequence (looked up): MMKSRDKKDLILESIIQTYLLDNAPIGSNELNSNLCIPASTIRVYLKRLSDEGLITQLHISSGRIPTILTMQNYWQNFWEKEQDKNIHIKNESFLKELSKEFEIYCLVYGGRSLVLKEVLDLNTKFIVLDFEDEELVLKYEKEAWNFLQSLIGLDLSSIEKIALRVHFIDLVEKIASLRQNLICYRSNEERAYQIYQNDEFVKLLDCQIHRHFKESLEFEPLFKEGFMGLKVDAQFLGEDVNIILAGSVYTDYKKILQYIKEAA
Assay: pull-down; GST-HrcA on glutathione-agarose as bait, incubated 16 h at 4 °C with pre-cleared C. jejuni NCTC11168 cytoplasmic extract in Res buffer (10 mM Tris-HCl pH 7.5, 100 mM NaCl, 20 mM KCl, 1 mM EDTA, 0.01% NP-40); GroEL detected by anti-GroEL immunoblot; GST alone as control bait
Details: one partner purified

B1: GroEL chaperonin of C. jejuni (natural protein, UniProt O69289 1-545, looked up)
chain: MAKEIIFSDEARNKLYEGVKKLNDAVKVTMGPRGRNVLIQKSFGAPSITKDGVSVAKEVELKDSLENMGASLVREVASKTADQAGDGTTTATVLAHAIFKEGLRNITAGANPIEVKRGMDKACEAIVAELKKLSREVKDKKEIAQVATISANSDEKIGNLIADAMEKVGKDGVITVEEAKSINDELNVVEGMQFDRGYLSPYFITNAEKMTVELSSPYILLFDKKITNLKDLLPVLEQIQKTGKPLLIIAEDIEGEALATLVVNKLRGVLNISAVKAPGFGDRRKAMLEDIAILTGGEVISEELGRTLESATIQDLGQASSVIIDKDNTTIVNGAGEKANIDARVNQIKAQIAETTSDYDREKLQERLAKLSGGVAVIKVGAATETEMKEKKDRVDDALSATKAAVEEGIVIGGGAALIKAKAKIKLDLQGDEAIGAAIVERALRAPLRQIAENAGFDAGVVVNSVENAKDENTGFDAAKGEYVNMLESGIIDPVKVERVALLNAVSVASMLLTTEATISEIKEDKPTMPDMSGMGGMGGMGGMM
notes: GroEL (60 kDa chaperonin) of Campylobacter jejuni NCTC 11168, endogenous protein detected by anti-GroEL immunoblot; Only GroEL was detected in the pull-down; also called GroE chaperonin; source: endogenous, cytoplasmic protein extract of C. jejuni NCTC11168 wild type
  fold intensity of the GroEL band against the GST control pull-down: 6.2 fold
